Experimental findings from PMC3871639 are described below.

In the series the target is T1, Stat5 (mouse liver nuclear extract, identified by WEMSA immunoblot) (mouse) (UniProt P42232).
T1 sequence: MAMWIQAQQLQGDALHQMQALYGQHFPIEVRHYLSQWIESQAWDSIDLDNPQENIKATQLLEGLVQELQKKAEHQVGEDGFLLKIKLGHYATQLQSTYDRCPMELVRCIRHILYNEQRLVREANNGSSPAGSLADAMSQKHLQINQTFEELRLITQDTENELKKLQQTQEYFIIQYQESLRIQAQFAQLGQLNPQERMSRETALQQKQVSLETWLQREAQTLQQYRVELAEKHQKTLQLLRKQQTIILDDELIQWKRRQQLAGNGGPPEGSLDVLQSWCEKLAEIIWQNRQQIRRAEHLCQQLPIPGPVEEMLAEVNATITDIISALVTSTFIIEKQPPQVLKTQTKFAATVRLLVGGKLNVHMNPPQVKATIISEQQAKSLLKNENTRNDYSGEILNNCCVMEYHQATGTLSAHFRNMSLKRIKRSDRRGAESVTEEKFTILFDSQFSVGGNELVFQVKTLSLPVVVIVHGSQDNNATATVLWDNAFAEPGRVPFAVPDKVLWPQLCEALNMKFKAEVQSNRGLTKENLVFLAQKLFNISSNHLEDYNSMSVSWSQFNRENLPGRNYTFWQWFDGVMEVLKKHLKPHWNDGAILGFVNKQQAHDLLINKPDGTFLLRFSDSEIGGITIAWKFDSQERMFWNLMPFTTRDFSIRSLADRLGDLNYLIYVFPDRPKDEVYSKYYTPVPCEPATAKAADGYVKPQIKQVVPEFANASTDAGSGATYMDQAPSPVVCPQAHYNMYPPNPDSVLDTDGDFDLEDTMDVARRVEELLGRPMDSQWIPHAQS
Kind of series: EMSA + immunoblot of shifted complex (WEMSA). To be noted: Li-Cor EMSA buffer kit: 1x binding buffer, poly(dI-dC) 1 ug/uL (in 10 mM Tris, 1 mM EDTA, pH 7.5), 25 mM DTT/2.5% Tween-20, 1% NP-40, 100 mM MgCl2 (as listed …). In general terms: A gel shift assay detects complexes by their altered migration in electrophoresis.

Regarding “GTAATTCCTAGATTCATGGAAGAG (double strand) [Stat5 element probe of mouse Tmprss6 promoter]”, the binding signal (% of baseline shift (decreased by 60%)) turned out to be 40.
